Data set [1] deals with T1, DestiTA (Desulfomonile tiedjei, UniProt I4C827, T199N).
T1 construct: gene Desti_3054; recombinant in E. coli Rosetta(DE3) pLysS, codon-optimized gene in modified pET-21d; N-terminal (His)6-TEV tag cut with TEV protease; homodimer about 68 kDa by gel filtration
Put plainly: thermal shift assay (ThermoFluor) on apoenzyme, quadratic fit. Type of data set: binding. Conditions: 50 mM K-phosphate, pH 8.0; 2 µM apoenzyme incubated with 0.5–500 µM PLP 1 h at 25 °C; covalent (Schiff base to K158). (In general: In DSF a fluorescence change marks the thermal transition of the protein.)

The target of data set [2] is T2, DestiTA (Desulfomonile tiedjei, UniProt I4C827, T199Q).
T2 construct: gene Desti_3054; recombinant in E. coli Rosetta(DE3) pLysS, codon-optimized gene in modified pET-21d; N-terminal (His)6-TEV tag cut with TEV protease; homodimer about 68 kDa by gel filtration
The description is as above. Type of data set: binding. Conditions: 50 mM K-phosphate, pH 8.0; 2 µM apoenzyme incubated with 0.5–500 µM PLP 1 h at 25 °C; covalent (Schiff base to K158).

In data set [3] the target is T3, DestiTA (Desulfomonile tiedjei, UniProt I4C827).
T3 construct: gene Desti_3054; recombinant in E. coli Rosetta(DE3) pLysS, codon-optimized gene in modified pET-21d; N-terminal (His)6-TEV tag cut with TEV protease; homodimer about 68 kDa by gel filtration
T3 sequence (I4C827 1-302): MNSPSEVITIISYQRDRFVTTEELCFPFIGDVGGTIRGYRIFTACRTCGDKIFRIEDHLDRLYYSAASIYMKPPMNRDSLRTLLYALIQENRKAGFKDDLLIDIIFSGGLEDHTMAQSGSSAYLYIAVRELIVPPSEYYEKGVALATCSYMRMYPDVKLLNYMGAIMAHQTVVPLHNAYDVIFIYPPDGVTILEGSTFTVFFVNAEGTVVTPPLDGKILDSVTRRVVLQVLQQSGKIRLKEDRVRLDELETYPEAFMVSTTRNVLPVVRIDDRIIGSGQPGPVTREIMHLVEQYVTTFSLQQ
The data set is described as above. Type of data set: binding. Conditions: 50 mM K-phosphate, pH 8.0; 2 µM apoenzyme incubated with 0.5–500 µM PLP 1 h at 25 °C; covalent (Schiff base to K158).

Substrate in data set [4]: C[C@@H](N)C(=O)O
Put plainly: purified protein. Conditions: co-substrate α-ketoglutarate, 50 mM K-phosphate, 30 µM PLP.

Substrate in data set [5]: O=C(O)CCC(=O)C(=O)O
Put plainly: purified protein. The format is biochemical, Desulfomonile tiedjei. The note with it: co-substrate D-alanine, 50 mM K-phosphate, 30 µM PLP.

Data set [6] deals with the molecule itself. Put plainly: SEC; gel filtration of the purified enzyme; molecular weight approximately 68 kDa for the WT (subunit 34.2 kDa); self-association, homodimer.
Substrate in data set [7]: C[C@@H](N)c1ccccc1
Put plainly: purified protein. The note with it: co-substrate α-ketoglutarate, 50 mM Na-pyrophosphate, pH 9.0, 50 °C, 30 µM PLP. Type of data set: biochemical, Desulfomonile tiedjei.

Substitutions are numbered along the chain they refer to. Names and notes keep the numbering of the source.

T2 sequence (I4C827 entry or part of it T199Q): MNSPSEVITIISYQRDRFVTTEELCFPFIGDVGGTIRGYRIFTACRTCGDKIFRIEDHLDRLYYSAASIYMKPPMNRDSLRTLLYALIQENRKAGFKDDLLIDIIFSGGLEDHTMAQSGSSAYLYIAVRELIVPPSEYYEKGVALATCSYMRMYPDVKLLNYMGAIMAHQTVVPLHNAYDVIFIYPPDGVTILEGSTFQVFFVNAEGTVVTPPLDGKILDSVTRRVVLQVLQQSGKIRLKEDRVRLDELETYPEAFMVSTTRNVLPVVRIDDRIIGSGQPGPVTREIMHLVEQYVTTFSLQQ
T1 sequence (I4C827 entry or part of it T199N): as the sequence (I4C827 entry or part of it T199Q) above, with Q199N counted along it

On to `Cc1ncc(COP(=O)(O)O)c(C=O)c1O` [PLP], for which the dissociation constant (Kd) (as a rule, the free concentration of one partner at which half of the binding sites on the other are occupied at equilibrium, for simple one-to-one binding) at DestiTA [1] worked out at 33 ± 2 µM; at DestiTA [2] it was 2200 ± 400 nM; at DestiTA [3], 11 ± 1 µM.

B1: DestiTA T43E variant (enzyme, Desulfomonile tiedjei DSM 6799, UniProt I4C827 1-302, looked up)
chain: T3 sequence (I4C827 1-302) with T43E
notes: DestiTA of Desulfomonile tiedjei DSM 6799, gene Desti_3054, Uniprot ID I4C827_DESTA, with T43E; Made by single-primer site-directed mutagenesis; also called the T43E variant; source: E. coli, purified as described for the WT DestiTA; not shown: His6, N-terminal, cleaved
For B1, in “purified protein [4]” (pH 6.5, 40 °C, pH 6.5, 40.0 °C), the Km (as a rule, the substrate concentration at which the rate is half of its maximum) came out at 2.9 ± 0.8 mM; the kcat (as a rule, the maximal rate divided by the concentration of active sites) is 0.15 s⁻¹; the kcat/Km (commonly the second-order rate constant that governs catalysis at low substrate concentration) was determined as 52 M⁻¹ s⁻¹. In the data set “purified protein [5]” (pH 6.5, 40 °C), the Km is 2.8 ± 0.9 mM, the kcat was determined as 0.15 ± 0.01 s⁻¹ and the kcat/Km was determined as 54 ± 30 M⁻¹ s⁻¹. Also, in data set [6], the stoichiometry N – broadly, the number of molecules, sites or subunits per partner or assembly – amounted to 2.

B2: DestiTA T199Q variant (enzyme, Desulfomonile tiedjei DSM 6799, UniProt I4C827 1-302, looked up)
chain: T3 sequence (I4C827 1-302) with T199Q
notes: DestiTA of Desulfomonile tiedjei DSM 6799, gene Desti_3054, Uniprot ID I4C827_DESTA, with T199Q; Made by single-primer site-directed mutagenesis; also called the T199Q variant; source: E. coli, purified as described for the WT DestiTA; not shown: His6, N-terminal, cleaved
In the case of B2, in “purified protein [4]” (pH 8.0, 50 °C, pH 8.0, 50.0 °C), the Km is 50 ± 6 mM, the kcat came to 8.4 s⁻¹ and the kcat/Km turned out to be 170 M⁻¹ s⁻¹. Besides, in “purified protein [5]” (pH 8.0, 50 °C), the Km is 0.45 ± 0.07 mM, the kcat turned out to be 8.4 ± 0.4 s⁻¹ and the kcat/Km worked out at 19000 ± 4000 M⁻¹ s⁻¹. Moreover, the “stoichiometry N” value in data set [6] was 2.

B3: DestiTA T199N variant (enzyme, Desulfomonile tiedjei DSM 6799, UniProt I4C827 1-302, looked up)
chain: T3 sequence (I4C827 1-302) with T199N
notes: DestiTA of Desulfomonile tiedjei DSM 6799, gene Desti_3054, Uniprot ID I4C827_DESTA, with T199N; Made by single-primer site-directed mutagenesis; also called the T199N variant; source: E. coli, purified as described for the WT DestiTA; not shown: His6, N-terminal, cleaved
As to B3, in the data set “purified protein [4]” (pH 8.0, 50 °C, pH 8.0, 50.0 °C), the Km was 0.52 ± 0.07 mM, the turnover number (kcat) came to 5 s⁻¹ and the kcat/Km came to 10000 ± 2000 M⁻¹ s⁻¹. Also, in “purified protein [5]” (pH 8.0, 50 °C), the Km was found to be 0.21 ± 0.03 mM, the kcat was found to be 5 ± 0.2 s⁻¹ and the kcat/Km stood at 24000 ± 4000 M⁻¹ s⁻¹. The “stoichiometry N” value in data set [6] turned out to be 2.

B4: D-amino acid transaminase from Desulfomonile tiedjei (DestiTA), wild type (enzyme, Desulfomonile tiedjei DSM 6799, UniProt I4C827 1-302, looked up)
chain: T3 sequence (I4C827 1-302)
notes: PLP-dependent fold type IV transaminase DestiTA of Desulfomonile tiedjei DSM 6799, gene Desti_3054, Uniprot ID I4C827_DESTA; recombinant DestiTA printed as 302 a.a., 34.2 kDa; codon-optimised synthetic gene in modified pET-21d; N-terminal (His)6-TEV-tag removed with TEV protease; also called WT DestiTA; WT; source: E. coli Rosetta(DE3) pLysS, purified (HisTrap HP, TEV cleavage, second HisTrap HP, …)
For B4, in “purified protein [4]” (pH 8.0, 50 °C, pH 8.0, 50.0 °C), the Km amounted to 0.5 ± 0.1 mM, the kcat was found to be 5.8 s⁻¹ and the kcat/Km turned out to be 11600 ± 3000 M⁻¹ s⁻¹. Moreover, in “purified protein [7]”, the Km is on record as 17 ± 2 mM, the kcat is 0.7 ± 0.1 s⁻¹ and the specificity constant (kcat/Km) turned out to be 70 ± 20 M⁻¹ s⁻¹. For the same molecule, in “purified protein [5]” (pH 8.0, 50 °C), the Km turned out to be 0.11 ± 0.01 mM, the catalytic constant (kcat) stood at 5.8 ± 0.2 s⁻¹ and the specificity constant (kcat/Km) stood at 53000 ± 8000 M⁻¹ s⁻¹. Also, the “stoichiometry N” value in data set [6] was 2.
